A word on the stoichiometry N: it is a count of units in the complex or per binding partner.

Values joined by “and” are separate entries in the source; they are usually repeats but may differ in a detail not shown here. Equal values may be shown once.

Data set [1] concerns the molecule itself. Briefly: SEC-MALS; five-fold dilution series (1 mg/mL, 0.2 mg/mL, 0.04 mg/mL sample concentration). On the technique in general: SEC sorts molecules by how far they enter the pores of the column.
Data set [2] deals with the molecule itself. Briefly: SAXS; SEC-SAXS, 45 μL at 3-12 mg/mL, Shodex KW-403, buffer E (20 mM Tris pH 8.0, 100 mM NaCl, 5 mM DTT); compared with curves calculated from the crystal structures.
Data set [3] deals with the molecule itself. Briefly: cell-based or functional assay.
Data set [4] deals with the molecule itself. Briefly: not stated; oligomeric state of the purified deletion construct, Figure S4F (legend not shown).
Data set [5] concerns the molecule itself. Briefly: native gel or EMSA; native PAGE of lysate of untreated HEK293 cells, immunoblotting for the endogenous protein; recombinant USP25 tetramer and dimer fractions as size standard.

B1: Human USP25 (157-1055) (domain or fragment, UniProt Q9UHP3 157-1055, looked up)
chain: NPYDRKRQDKAPVGLKNVGNTCWFSAVIQSLFNLLEFRRLVLNYKPPSNAQDLPRNQKEHRNLPFMRELRYLFALLVGTKRKYVDPSRAVEILKDAFKSNDSQQQDVSEFTHKLLDWLEDAFQMKAEEETDEEKPKNPMVELFYGRFLAVGVLEGKKFENTEMFGQYPLQVNGFKDLHECLEAAMIEGEIESLHSENSGKSGQEHWFTELPPVLTFELSRFEFNQALGRPEKIHNKLEFPQVLYLDRYMHRNREITRIKREEIKRLKDYLTVLQQRLERYLSYGSGPKRFPLVDVLQYALEFASSKPVCTSPVDDIDASSPPSGSIPSQTLPSTTEQQGALSSELPSTSPSSVAAISSRSVIHKPFTQSRIPPDLPMHPAPRHITEEELSVLESCLHRWRTEIENDTRDLQESISRIHRTIELMYSDKSMIQVPYRLHAVLVHEGQANAGHYWAYIFDHRESRWMKYNDIAVTKSSWEELVRDSFGGYRNASAYCLMYINDKAQFLIQEEFNKETGQPLVGIETLPPDLRDFVEEDNQRFEKELEEWDAQLAQKALQEKLLASQKLRESETSVTTAQAAGDPEYLEQPSRSDFSKHLKEETIQIITKASHEHEDKSPETVLQSAIKLEYARLVKLAQEDTPPETDYRLHHVVVYFIQNQAPKKIIEKTLLEQFGDRNLSFDERCHNIMKVAQAKLEMIKPEEVNLEEYEEWHQDYRKFRETTMYLIIGLENFQRESYIDSLLFLICAYQNNKELLSKGLYRGHDEELISHYRRECLLKLNEQAAELFESGEDREVNNGLIIMNEFIVPFLPLLLVDEMEEKDILAVEDMRNRWCSYLGQEMEPHLQEKLTDFLPKLLDCSMEIKSFHEPPKLPSYSTHELCERFARIMLSLSRTPADGR
notes: source: E. coli Rosetta2(DE3)pLacI, purified (HisTrap, 3C protease, Resource Q, size exclusion)
In the case of B1, the “stoichiometry N” value in data set [1] was found to be 4.

B2: Human USP28 (149-703) (domain or fragment, UniProt Q96RU2 149-703, looked up)
chain: PNPNDWRRVDGWPVGLKNVGNTCWFSAVIQSLFQLPEFRRLVLSYSLPQNVLENCRSHTEKRNIMFMQELQYLFALMMGSNRKFVDPSAALDLLKGAFRSSEEQQQDVSEFTHKLLDWLEDAFQLAVNVNSPRNKSENPMVQLFYGTFLTEGVREGKPFCNNETFGQYPLQVNGYRNLDECLEGAMVEGDVELLPSDHSVKYGQERWFTKLPPVLTFELSRFEFNQSLGQPEKIHNKLEFPQIIYMDRYMYRSKELIRNKRECIRKLKEEIKILQQKLERYVKYGSGPARFPLPDMLKYVIEFASTKPASESCPPESDTHMTLPLSSVHCSVSDQTSKESTSTESSSQDVESTFSSPEDSLPKSKPLTSSRSSMEMPSQPAPRTVTDEEINFVKTCLQRWRSEIEQDIQDLKTCIASTTQTIEQMYCDPLLRQVPYRLHAVLVHEGQANAGHYWAYIYNQPRQSWLKYNDISVTESSWEEVERDSYGGLRNVSAYCLMYINDKLPYFNAEAAPTESDQMSEVEALSVELKHYIQEDNWRFEQEVEEWEEEQSCKI
notes: also called USP28 catalytic domain; source: E. coli Rosetta2(DE3)pLacI, purified (HisTrap, 3C protease, Resource Q, size exclusion)
As for B2, the “stoichiometry N” value in data set [2] was 2.

B3: Human USP25 (157-Δ(465-535)-714) (domain or fragment)
chain: NPYDRKRQDKAPVGLKNVGNTCWFSAVIQSLFNLLEFRRLVLNYKPPSNAQDLPRNQKEHRNLPFMRELRYLFALLVGTKRKYVDPSRAVEILKDAFKSNDSQQQDVSEFTHKLLDWLEDAFQMKAEEETDEEKPKNPMVELFYGRFLAVGVLEGKKFENTEMFGQYPLQVNGFKDLHECLEAAMIEGEIESLHSENSGKSGQEHWFTELPPVLTFELSRFEFNQALGRPEKIHNKLEFPQVLYLDRYMHRNREITRIKREEIKRLKDYLTVLQQRLERYLSYGSGPKRFPLVDVLQYALEFASSKPVGSGSGSAPRHITEEELSVLESCLHRWRTEIENDTRDLQESISRIHRTIELMYSDKSMIQVPYRLHAVLVHEGQANAGHYWAYIFDHRESRWMKYNDIAVTKSSWEELVRDSFGGYRNASAYCLMYINDKAQFLIQEEFNKETGQPLVGIETLPPDLRDFVEEDNQRFEKELEEWDAQLAQKALQE
notes: USP25, human, residues 536-714; source: E. coli Rosetta2(DE3)pLacI, purified (HisTrap, 3C protease, Resource Q, size exclusion)
B3: in data set [3], the “Ub-KG-TAMRA cleavage activity against the tetrameric wild-type USP25 (157-714)” value stood at 6 fold. Besides, the “stoichiometry N” value in data set [4] is 2.

B4: Human USP25 (1-714) (domain or fragment, UniProt Q9UHP3 1-714, looked up)
chain: MTVEQNVLQQSAAQKHQQTFLNQLREITGINDTQILQQALKDSNGNLELAVAFLTAKNAKTPQQEETTYYQTALPGNDRYISVGSQADTNVIDLTGDDKDDLQRAIALSLAESNRAFRETGITDEEQAISRVLEASIAENKACLKRTPTEVWRDSRNPYDRKRQDKAPVGLKNVGNTCWFSAVIQSLFNLLEFRRLVLNYKPPSNAQDLPRNQKEHRNLPFMRELRYLFALLVGTKRKYVDPSRAVEILKDAFKSNDSQQQDVSEFTHKLLDWLEDAFQMKAEEETDEEKPKNPMVELFYGRFLAVGVLEGKKFENTEMFGQYPLQVNGFKDLHECLEAAMIEGEIESLHSENSGKSGQEHWFTELPPVLTFELSRFEFNQALGRPEKIHNKLEFPQVLYLDRYMHRNREITRIKREEIKRLKDYLTVLQQRLERYLSYGSGPKRFPLVDVLQYALEFASSKPVCTSPVDDIDASSPPSGSIPSQTLPSTTEQQGALSSELPSTSPSSVAAISSRSVIHKPFTQSRIPPDLPMHPAPRHITEEELSVLESCLHRWRTEIENDTRDLQESISRIHRTIELMYSDKSMIQVPYRLHAVLVHEGQANAGHYWAYIFDHRESRWMKYNDIAVTKSSWEELVRDSFGGYRNASAYCLMYINDKAQFLIQEEFNKETGQPLVGIETLPPDLRDFVEEDNQRFEKELEEWDAQLAQKALQE
notes: USP25, human, residues 1-714; tetrameric and dimeric species side by side; source: E. coli Rosetta2(DE3)pLacI, purified (HisTrap, 3C protease, Resource Q, size exclusion)
On to B4, for which, in data set [1], the “stoichiometry N” value was 4 and 2.

B5: endogenous USP28 (enzyme, human (endogenous in HEK293), UniProt Q96RU2 1-1077, looked up)
chain: MTAELQQDDAAGAADGHGSSCQMLLNQLREITGIQDPSFLHEALKASNGDITQAVSLLTDERVKEPSQDTVATEPSEVEGSAANKEVLAKVIDLTHDNKDDLQAAIALSLLESPKIQADGRDLNRMHEATSAETKRSKRKRCEVWGENPNPNDWRRVDGWPVGLKNVGNTCWFSAVIQSLFQLPEFRRLVLSYSLPQNVLENCRSHTEKRNIMFMQELQYLFALMMGSNRKFVDPSAALDLLKGAFRSSEEQQQDVSEFTHKLLDWLEDAFQLAVNVNSPRNKSENPMVQLFYGTFLTEGVREGKPFCNNETFGQYPLQVNGYRNLDECLEGAMVEGDVELLPSDHSVKYGQERWFTKLPPVLTFELSRFEFNQSLGQPEKIHNKLEFPQIIYMDRYMYRSKELIRNKRECIRKLKEEIKILQQKLERYVKYGSGPARFPLPDMLKYVIEFASTKPASESCPPESDTHMTLPLSSVHCSVSDQTSKESTSTESSSQDVESTFSSPEDSLPKSKPLTSSRSSMEMPSQPAPRTVTDEEINFVKTCLQRWRSEIEQDIQDLKTCIASTTQTIEQMYCDPLLRQVPYRLHAVLVHEGQANAGHYWAYIYNQPRQSWLKYNDISVTESSWEEVERDSYGGLRNVSAYCLMYINDKLPYFNAEAAPTESDQMSEVEALSVELKHYIQEDNWRFEQEVEEWEEEQSCKIPQMESSTNSSSQDYSTSQEPSVASSHGVRCLSSEHAVIVKEQTAQAIANTARAYEKSGVEAALSEVMLSPAMQGVILAIAKARQTFDRDGSEAGLIKAFHEEYSRLYQLAKETPTSHSDPRLQHVLVYFFQNEAPKRVVERTLLEQFADKNLSYDERSISIMKVAQAKLKEIGPDDMNMEEYKKWHEDYSLFRKVSVYLLTGLELYQKGKYQEALSYLVYAYQSNAALLMKGPRRGVKESVIALYRRKCLLELNAKAASLFETNDDHSVTEGINVMNELIIPCIHLIINNDISKDDLDAIEVMRNHWCSYLGQDIAENLQLCLGEFLPRLLDPSAEIIVLKEPPTIRPNSPYDLCSRFAAVMESIQGVSTVTVK
notes: USP28, endogenous in untreated HEK293 cells; source: endogenous, HEK293 lysate
As to B5, in data set [5], the “stoichiometry N” value was 2.

The record behind these values is article PMC6509359 (Molecular Cell, 2019).
